A word on the IC50: it is the midpoint of a concentration-inhibition curve. Higher therefore signals weaker potency.

The target in this assay is human Nav1.7, Q15858. Conditions: chains peptide; modification not given.

Molecule GPYCQKWMWTCDSERKCCEGMVCRLWCKKKLW [recombinant Protoxin-II] displayed an IC50 of 62 nM.

For the origin of these results see patent publication US20210363204A1.
